Assays:
[1] = biological target: human type II collagen (type II collagen alpha I chain) (human) (UniProt P02458); assay: SPR, Biacore 3000, Langmuir 1:1 model
[2] = biological target: human type II collagen (type II collagen alpha I chain) (human) (UniProt P02458); assay: ELISA (KD determination by ELISA, Example 5)
[3] = biological target: human type II collagen (type II collagen alpha I chain) (human) (UniProt P02458); assay: ELISA, collagen coated on the plate, dilution series of the binder, detection via StrepTag, A 450-600 nm

| Binder | Kd [1] [nM] | Kd [2] [nM] | Kd [3] [nM] |
| --- | --- | --- | --- |
| CID 212000 (SEQ ID NO: 39), dimer of SEQ ID NO: 2 with linker between the monomers (designed binder, not shown: small tags and cut ends) IAAKFDEAQSAADSEILHLPNLTEQQRHYFRRWLSDDPSVSTHILTQAQHLNDDQAPKGGGGSGGGGSGGGGSGGGGSIAAKFDEAQSAADSEILHLPNLTEQQRHYFRRWLSDDPSVSTHILTQAQHLNDDQAPKSAWSHPQFEK | 180 |  | 6.38 |
| CID 212001 (SEQ ID NO: 41), tetramer of SEQ ID NO: 2 (designed binder, not shown: small tags and cut ends) IAAKFDEAQSAADSEILHLPNLTEQQRHYFRRWLSDDPSVSTHILTQAQHLNDDQAPKIAAKFDEAQSAADSEILHLPNLTEQQRHYFRRWLSDDPSVSTHILTQAQHLNDDQAPKIAAKFDEAQSAADSEILHLPNLTEQQRHYFRRWLSDDPSVSTHILTQAQHLNDDQAPKIAAKFDEAQSAADSEILHLPNLTEQQRHYFRRWLSDDPSVSTHILTQAQHLNDDQAPKSAWSHPQFEK | < 0.5 |  | 0.3 |

Further binders by falling Kd [1], results first:

| Kd [1] [nM] | Kd [2] [nM] | Kd [3] [nM] | Binder |
| --- | --- | --- | --- |
| 169 | 460 |  | 210987 (SEQ ID NO: 36) (designed binder, not shown: small tags and cut ends) IAAKFDEAQQAAFYEILHLPNLTEQQRNYFIQWLRDDPSVSLEVLGTAQRLNDSQAPKIAAKFDEAQQLAFYQILHLENLTEEQRNAFIQSLRDDPSVSLEVLGEAIKLNLSQAPK |
| 127 |  | 8.06 | CID 211999 (SEQ ID NO: 38), dimer of SEQ ID NO: 2 (directly joint monomers) (designed binder, not shown: small tags and cut ends) IAAKFDEAQSAADSEILHLPNLTEQQRHYFRRWLSDDPSVSTHILTQAQHLNDDQAPKIAAKFDEAQSAADSEILHLPNLTEQQRHYFRRWLSDDPSVSTHILTQAQHLNDDQAPKSAWSHPQFEK |

— patent US20230416345A1, “NEW TYPE II COLLAGEN BINDING PROTEINS” (Navigo Proteins GmbH, priority 2020, published 2023)
